Target: the molecule itself
Assay: SEC

B1: EspB_(1-338), N-terminal EspB fragment (domain or fragment)
chain: MTQSQTVTVDQQEILNRANEVEAPMADPPTDVPITPCELTAAKNAAQQLVLSADNMREYLAAGAKERQRLATSLRNAAKAYGEVDEEAATALDNDGEGTVQAESAGAVGGDSSAELTDTPRVATAGEPNFMDLKEAARKLETGDQGASLAHFADGWNTFNLTLQGDVKRFRGFDNWEGDAATACEASLDQQRQWILHMAKLSAAMAKQAQYVAQLHVWARREHPTYEDIVGLERLYAENPSARDQILPVYAEYQQRSEKVLTEYNNKAALEPVNPPKPPPAIKIDPPPPPQEQGLIPGFLMPPSDGSGVTPGTGMPAAPMVPPTGSPGGGLPADTAAQ
B1: binds.

Reference: article PMC4520771 (Journal of structural biology, 2015)
